Earlier results on three substances are cited in PMC12469268.

Data set [1] deals with α2B-adrenoceptor (Homo sapiens) (UniProt P18089).
The target in data set [2] is α2C-adrenoceptor (Homo sapiens) (UniProt P18825).
Data set [3] deals with α2A-adrenoceptor (Homo sapiens) (UniProt P08913).
Data set [4] has as its target integrin αvβ3 (Homo sapiens) (UniProt P06756).
Data set [5] deals with α1A-adrenoceptor (Homo sapiens) (UniProt P35348). The experiment in a line: 3H-prazosin competition binding.

With ρ-Da1b (from UniProt P86419), the Ki in data set [1] was 73 nM; in data set [2], 38 nM; in data set [3], 14 nM.

On to “CTX A5 (cardiotoxin A5) (from UniProt P62375)”, for which, in data set [4], the Kd is 300 nM. Turning to AdTx1 (from UniProt P85092), the Ki in data set [5] is 0.35 nM.
